The target of experiment [1] is T1, EGFR-Flag (UniProt P00533 25-1210, limits assumed).
T1 construct: whole, on cells; also called exogenous EGFR; not shown: Flag tag
Description: co-IP with anti-V5, Western blot with anti-Flag, transfected 293T cells (FIG. 1D). As to the method:
(§1) FIGS. 1A to 1H. EpEX binds to EGFR through its EGF-like domain I. (FIG. 1A) Immunoprecipitation (IP) of affinity cross-linked EpEX-Fc bound to EGFR from HCT116 cells. (FIG. 1B) EpEX-Fc was added to EGFRECD-coated ELISA plates and detected by TMB colorimetric peroxidase assay. (FIG. 1C) 293T cells were transfected with EGFR-Flag and EpCAM-V5. IP was performed with anti-V5 antibody (left panel) or anti-Flag antibody (right panel) followed by Western blotting. (FIG. 1D) 293T cells were transfected with EGFR-Flag and EGF domain-deleted mutant EpCAM-V5. The protein interaction was probed by IP with anti-V5 antibody and Western blotting with anti-Flag antibody. (FIG. 1E) In culture media from 293T cells with EGFRECD-Flag and EpEX-Fc transfection, IP was performed with Dynabeads® Protein G and detected by Western blotting with anti-Flag antibody. (FIG. 1F) 293T cells were transiently transfected with EGFRECD-Flag and EGF domain-deleted mutant EpEX-Fc. […] (FIG. 1G) Purified EGFRECD-6×His and EGF domain-deleted mutant EpEX-Fc were incubated and IP was performed with Dynabeads® Protein G and detected by Western blotting. (FIG. 1H) HCT116 cells were starved and treated with wild-type or EGF domain-deleted mutant EpEX, and EGFR signaling was analyzed by Western blotting. […]
(In general: Immunoblotting shows a protein as a band on a membrane.)

Experiment [2] addresses T1, EGFR-Flag. As to the kind of experiment: co-IP from HEK293T cells overexpressing EpCAM-V5 and EGFR-Flag (FIG. 1C). As to the method:
as §1

B1: EGF-like domain II-deleted EpCAM mutant (EpCAMΔEGFII), V5-tagged (other, UniProt P16422 24-314, looked up)
chain: QEECVCENYKLAVNCFVNNNRQCQCTSVGAQNTVICSKLAAKSERVRTYWIIIELKHKAREKPYDSKSLRTALQKEITTRYQLDPKFITSILYENNVITIDLVQNSSQKTQNDVDIADVAYYFEKDVKGESLFHSKKMDLTVNGEQLDLDPGQTLIYYVDEKAPEFSMQGLKAGVIAVIVVVVIAVVAGIVVLVISRKKRMAKYEKAEIKEMGEMHRELNA
notes: whole, on cells; also called EGF domain-deleted mutant EpCAM-V5; not shown: V5 tag
With B1, in the experiment with EGFR-Flag [1], the binding result is listed as “binds”.

B2: EpCAM-V5 (other, UniProt P16422 24-314, looked up)
chain: QEECVCENYKLAVNCFVNNNRQCQCTSVGAQNTVICSKLAAKCLVMKAEMNGSKLGRRAKPEGALQNNDGLYDPDCDESGLFKAKQCNGTSMCWCVNTAGVRRTDKDTEITCSERVRTYWIIIELKHKAREKPYDSKSLRTALQKEITTRYQLDPKFITSILYENNVITIDLVQNSSQKTQNDVDIADVAYYFEKDVKGESLFHSKKMDLTVNGEQLDLDPGQTLIYYVDEKAPEFSMQGLKAGVIAVIVVVVIAVVAGIVVLVISRKKRMAKYEKAEIKEMGEMHRELNA
notes: whole, on cells; also called exogenous EpCAM; not shown: V5 tag
With B2, the binding result with EGFR-Flag [2] was “binds”.

Values taken from patent US20220403044A1 (ACADEMIA SINICA, published 2022).
